Target: T1, human CD38 endogenously expressed on MOLP8 cells (human, UniProt P28907 1-300)
T1 construct: whole, on cells; also called hCD38
Assay: flow cytometry on MOLP8 cells (endogenous hCD38), APC anti-human secondary
Procedure: The ability of the multispecific antigen binding molecules to bind cells was assessed using flow cytometry. Cell lines were chosen to determine the ability of both the anti-CD38 and anti-4-1BB arms to bind their targets. […] Binding was detected by using a labeled secondary antibody and measuring fluorescence on a flow cytometer.
HEK293 cells were lifted with trypsin, washed and resuspend in stain buffer (2% FBS in PBS). MOLP8 cells were washed and resuspended in stain buffer. Cells were added to wells of a 96 well V-bottom plate (3×10⁵ cells/well). A 1:4, 9-point, dose titration of test antibodies was diluted in stain buffer and added to cells to a final concentration ranging from 610 fM to 10 nM (a “no antibody” control was included as the ninth point (153fM), labeled as “secondary only”). Cells and antibodies were incubated for 30 min on ice and then washed in stain buffer. Cells were resuspended in 2 ug/ml allophycocyanin (APC) conjugated goat-anti human secondary antibody and incubated for 30 min on ice. Cells were then washed and resuspended in viability dye (according to the manufacturer's protocol) and incubated for 30 min on ice. Cells were then washed with stain buffer and resuspended in 2% PFA for 30 min on ice. After washing, cells were filtered and analyzed by flow cytometry to determine the geometric mean fluorescence intensity (gMFI), which was subsequently plotted using GraphPad Prism software. EC₅₀ values of the antibodies were determined from a 4-parameter logistic equation over a 9-point dose response curve (including secondary only control, representing the ninth point).

MAX gMFI: 88000 gMFI
B1: REGN7633 (bispecific antibody, human IgG4 S228P, kappa)
heavy 1: QVQLVQSGPEVKNPGAAVKVSCKASGYTFTRFGISWVRQAPGQGLEWMGWISVDNGNANYAQRFQGRVTMTTDTSTSTAYMELRSLRSDDTAVYYCAREWSIAAPGYLDYWGQGTLVTVSSASTKGPSVFPLAPCSRSTSESTAALGCLVKDYFPEPVTVSWNSGALTSGVHTFPAVLQSSGLYSLSSVVTVPSSSLGTKTYTCNVDHKPSNTKVDKRVESKYGPPGGGGSGGGGSGGGGSEVQLVESGGGLVQPGRSLRLSCAASGYTFDDYAMHWVRQAPGKGLEWVSGISWISDVIGYADSVKGRFTISRDNAKNSLYLQMNSLRAEDTALYYCAKDNGGIIVATHYYSYGMDVWGQGTTVTVSSASTKGPSVFPLAPCSRSTSESTAALGCLVKDYFPEPVTVSWNSGALTSGVHTFPAVLQSSGLYSLSSVVTVPSSSLGTKTYTCNVDHKPSNTKVDKRVESKYGPPCPPCPAPPVAGPSVFLFPPKPKDTLMISRTPEVTCVVVDVSQEDPEVQFNWYVDGVEVHNAKTKPREEQFNSTYRVVSVLTVLHQDWLNGKEYKCKVSNKGLPSSIEKTISKAKGQPREPQVYTLPPSQEEMTKNQVSLTCLVKGFYPSDIAVEWESNGQPENNYKTTPPVLDSDGSFFLYSRLTVDKSRWQEGNVFSCSVMHEALHNRFTQKSLSLSPGK
heavy 2: EVQLVESGGGLVQPGRSLRLSCAASGFTFDDYAMHWVRQAPGKGLEWVSGISWKSDNIGYADSVKGRFTISRDNAKNSLYLQMNSLRAEDTALYYCAKALGGWKFDYYYGMDVWGQGTTVTVSSASTKGPSVFPLAPCSRSTSESTAALGCLVKDYFPEPVTVSWNSGALTSGVHTFPAVLQSSGLYSLSSVVTVPSSSLGTKTYTCNVDHKPSNTKVDKRVESKYGPPCPPCPAPPVAGPSVFLFPPKPKDTLMISRTPEVTCVVVDVSQEDPEVQFNWYVDGVEVHNAKTKPREEQFNSTYRVVSVLTVLHQDWLNGKEYKCKVSNKGLPSSIEKTISKAKGQPREPQVYTLPPSQEEMTKNQVSLTCLVKGFYPSDIAVEWESNGQPENNYKTTPPVLDSDGSFFLYSRLTVDKSRWQEGNVFSCSVMHEALHNHYTQKSLSLSLGK
light: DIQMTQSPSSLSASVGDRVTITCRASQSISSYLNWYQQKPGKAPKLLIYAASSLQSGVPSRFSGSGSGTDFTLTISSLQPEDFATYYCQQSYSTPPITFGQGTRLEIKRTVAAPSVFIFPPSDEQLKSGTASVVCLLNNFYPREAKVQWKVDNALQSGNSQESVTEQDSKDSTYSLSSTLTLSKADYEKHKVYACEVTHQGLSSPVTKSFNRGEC
notes: 1+2 format, hIgG4P-PVA; also called CD38x4-1BB (1 + 2); 26812P2 x 25889P2 (IN) + 35388P2 (OUT)

From patent US20230416396A1 (Regeneron, published 2023)
